Results published in paper PMC13589956, “Engineered flavonoid disrupts mitochondrial AIF/CHCHD4 complex for targeted cancer therapy” (Acta Pharmaceutica Sinica. B, 2026).

Target: T1, HIS-AIF_(103-613) (human, UniProt O95831 103-613)
T1 construct: apoptosis-inducing factor (AIF, encoded by AIFM1), human, residues 103-613; also called apoptosis-inducing factor; source: E. coli BL21+DE3(RIPL), 0.5 mmol/L IPTG 3 h at 37 °C, purified
Test: AlphaScreen or HTRF; His-AIF_(103-613) (5 μL at 300 nmol/L) and GST-CHCHD4 (5 μL at 100 nmol/L, 2 h) coupled by their tags to donor and acceptor beads (5 μg/mL, 3 h at 23 °C in the dark); 384-well plates, 25 μL, 0.1% BSA/PBS; N27 at 3 μmol/L as positive control of inhibition
Details: both partners purified

T1 sequence (O95831 103-613): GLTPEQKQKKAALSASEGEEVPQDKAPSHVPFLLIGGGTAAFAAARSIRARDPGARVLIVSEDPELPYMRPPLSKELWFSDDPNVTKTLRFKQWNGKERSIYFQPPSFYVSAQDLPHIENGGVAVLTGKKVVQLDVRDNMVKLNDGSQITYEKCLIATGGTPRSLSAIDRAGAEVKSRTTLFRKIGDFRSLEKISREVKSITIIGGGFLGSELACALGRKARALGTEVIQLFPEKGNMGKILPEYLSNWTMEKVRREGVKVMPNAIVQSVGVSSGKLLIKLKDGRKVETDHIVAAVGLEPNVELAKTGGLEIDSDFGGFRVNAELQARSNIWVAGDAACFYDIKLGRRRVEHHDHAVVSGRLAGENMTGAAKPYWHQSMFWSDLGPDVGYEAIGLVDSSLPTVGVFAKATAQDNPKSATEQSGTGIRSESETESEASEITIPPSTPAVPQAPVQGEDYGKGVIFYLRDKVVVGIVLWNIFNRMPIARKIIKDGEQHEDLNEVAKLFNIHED

B1: GST-CHCHD4 (natural protein, human, UniProt Q8N4Q1 1-142, looked up)
chain: MSYCRQEGKDRIIFVTKEDHETPSSAELVADDPNDPYEEHGLILPNGNINWNCPCLGGMASGPCGEQFKSAFSCFHYSTEEIKGSDCVDQFRAMQECMQKYPDLYPQEDEDEEEEREKKPAEQAEETAPIEATATKEEEGSS
notes: coiled-coil-helix-coiled-coil-helix domain-containing protein 4 (CHCHD4), human; it is printed both as GST-CHCHD4 and as CHCHD4-Gst; also called CHCHD4-Gst; coiled-coil-helix-coiled-coil-helix domain-containing protein 4; source: E. coli BL21+DE3(RIPL), 0.5 mmol/L IPTG 3 h at 37 °C, purified
binding result: binds

B2: peptide N27 (peptide, UniProt Q8N4Q1 1-27, looked up)
peptide: MSYCRQEGKDRIIFVTKEDHETPSSAE
notes: synthetic peptide corresponding to the N-terminal 27 amino acids of CHCHD4; source: synthetic peptide
binding result: binds
